This data set can be described thus: protease stability score; higher = more stable; yeast display proteolysis, trypsin and chymotrypsin.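 Note: relative to predicted unfolded state with 0 unfolded-like and 1 meaning tenfold more protease.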
Consider “SEDEETARRIVKELLHDRLTGNEDRIRELADPDVRLIIGEFHMHGMDNFLRVLRFIYHHWRIHDTQMETHEIQGDKAYNHTIIDGEFDGKRHEWQIHILVLKVNGRWRLKTLELH”, for which the protease stability score stood at 1.84.

As for “SEDEEIARRYLEFFLHILRTGDFEEMLRLLDPHVRTHVDGREKHGRENVTTFFMRWWEDYGFDHVTLEDFRVHIYGEKIHIKIDGYFHFNGRSVDVKIHVIAKKINGRWLLHEMHFEVR”, the protease stability score was determined as 1.26.

As to “DEEEEYHRRVLETITRARLTGDEDLFRKNVDPDVKIEVHVGNFRFHDVGWEHLRRWIEELGFEIHHIEIKHEHVINGVMHQESERDGTFNGVRDRVKVRFIYFIVNGRIKHIRFEVE”, the protease stability score came out at 0.781. Turning to “DDEERWTEEMYRIMIHIEKTGDEHTFSRLADPNVRLIVGDKHFHGRETFIEQLRKLIEHIRVEKIEIRHVELVGEKVILVMKRLSRIDGREVELEVHVEIVIVNGRYKMIRIEIR”, the protease stability score was found to be 1.43. In the case of “DEHEKHDRELKRIWVELFETGDEDTLIELADPNPRSRVNGKEFHGMEDIVQFLREWKMRIKGVREEIHHVDVINGRVRIDMKRFVGDKEFDVTIHLYVINGRFKQEEVRVH”, the protease stability score is 0.222.

For the sequence “DEDEELARKVLKVWNQAVQTGDEEVLHKLFDPNVQLVQGDKQLHGMESLVRFLRRYDVVRHVDSDVERIHVQGDKIRVTIRLIVDMEINGKRVRTELTIHFIIEKIDGRWVLRELHFE”, the protease stability score amounted to 0.964. The sequence “DEDDRHSERMSEYMIKVWMTGDEDAEKRLFDPHARIDVDGQEFIGREELHKISHEHLRKLGFDHFHVRHVELRLIDGKAHLSLDTEVRVGDFKFETSIYNNFEKVNGKWEIRELQVRIR” displayed a protease stability score of 1.2. In the case of “DEDTRIMEELLELTMEHVKTGDESSFRKLADPNVRMEYNGVEIHGREEASELFLEEMERIKNLTLRIKRLHIQGDKVIIYEEYEYGEKSWTVTYEAYKINGRWLMESIRFG” it was 1.13.

As to “DETERDVREAVRIWNEDVETGNEESLLRLIDPHVRLVINGQTFHGMESMLEVLNEFLKHIRVEHIEVKRIEIQGDKAIIDTNMDIEIDGKRKQKKTTLIIRKFNGRWHLSLVEIR”, the protease stability score came out at 1.86. On to “DEDERHTKILIDLLLHNSHTGDEHVLRHLFDPNVKIVIGDKELIGREYADQFIKRVDVIDHIEIKDWHTIGDKVHFHGETEGVIDGRKVHTHVKLEMKKFDGRWLIHRIVIR”, for which the protease stability score was 1.95. “DEDREIAERFLRRWSHDTLTGDEDSLRDMVDPNVRLEYGDFTFHGREEWLKFFREIRVEDSHVHHMHVFNGQARIKLDFRVRFNGKELRTKVTLSVDKVDGRWIIRSIHFE” gave a protease stability score of 1.64. Turning to “DDRHEENKEITRRQFELFETGDEEILHHLADPHVRLRIDGQHNHGREELERSLRELRKELGANVLILRRIRVIGDKMEVEGEFDYNGRNFHATFRFNVIDGRLHSMSIEIR”, the protease stability score is 0.832.

“DEDENIARHAMELYFKLFETGDFNTLSHLLDPNVRSNINGQTLHGRELMLKQFLDLWEHMGVDHIELKDSREHLVNGRVHRHFHGHLHVNGQTYEVHVRFIMVKVNGRWRHTSESISIR”: the protease stability score was found to be 1.1.

“SEDHKQAEEFMHRVAHNVLTGDEEKLDELIDPDARLEIGDKEHHGREIFIEFWRQLRVRDIKIRHWEIIGDKIFIRGEMNGIVDGRTRIFDIIVVMVKINGKWTLKRVEIK” had a protease stability score of 1.5.

Consider “SEDDEFIRFVSEIIEHILETGDEESLIKLADPNAQFIHIINGREIRYHGRHIFIEWWRRLGIDHLKIEDVRVEQQGDKMRTDFRVILRVGDKTIDSKLHFLIRKVDGKWHVESIKVEHR”, for which the protease stability score was determined as 2.27. With “DEDHELVEKFLRQMIFAQITGDWRFMMHLADPHVRYEVGDKHYHGREDMERVFREWRVNSIRIEHIRIIGDKAETHQDEDGHIDGRRIELHVRLILLKVDGRWIVHNSHII” the figure was 1.37; with “DEDERTMRIAFEMFKHNLETGDEDVIRRFVDPHVKIDIDGVHLHGWEVMYERIMRFDHVDIRLRDIRTFNGRAEIDGEILVEINGVSIEKRLIIHSEKIDGRWILRSHRII”, 0.89. In the case of “DDREKYLTKLMELFIEHWRTGDEEAFLEYFDPHVRIEHIFNGQETRRHGRELFSILLTHEWLFFKNVRIHWKRSEVQGEKTVIHMELHVGDKSLKVRIHLDVVDGRVRSVNIEIE” it was 0.548.

These data come from the NTF2 design screens of Basanta et al. (2020).
